Consider 1 protein from publication PMC3699834.

Substrate in the series: N
The series is described as follows: cells, lysate or membranes. The following applies: NH4Cl; oocytes clamped at −120 mV; Michaelis–Menten fit.

B1: AMT1;3 (Arabidopsis thaliana) (protein)
chain: MSGAITCSAADLATLLGPNATAAADYICGQLGTVNNKFTDAAFAIDNTYLLFSAYLVFAMQLGFAMLCAGSVRAKNTMNIMLTNVLDAAAGGLFYYLFGYAFAFGGSSEGFIGRHNFALRDFPTPTADYSFFLYQWAFAIAAAGITSGSIAERTQFVAYLIYSSFLTGFVYPVVSHWFWSPDGWASPFRSADDRLFSTGAIDFAGSGVVHMVGGIAGLWGALIEGPRRGRFEKGGRAIALRGHSASLVVLGTFLLWFGWYGFNPGSFTKILVPYNSGSNYGQWSGIGRTAVNTTLSGCTAALTTLFGKRLLSGHWNVTDVCNGLLGGFAAITAGCSVVEPWAAIVCGFMASVVLIGCNKLAELVQYDDPLEAAQLHGGCGAWGLIFVGLFAKEKYLNEVYGATPGRPYGLFMGGGGKLLGAQLVQILVIVGWVSATMGTLFFILKRLNLLRISEQHEMQGMDMTRHGGFAYIYHDNDDESHRVDPGSPFPRSATPPRV
A word on the Km: it is the substrate concentration at which the rate is half of its maximum. In the case of B1, the Km stood at 55 ± 15 µM.
